Assay results published in PMC4821178 (Insect Biochemistry and Molecular Biology, 2016).

Legend:
[1] = molecular target: human nicotinic acetylcholine receptor α7 subunit with a three amino acid (IIC) deletion in TM4 (human) (UniProt P36544); assay: radioligand binding
[2] = molecular target: T1, human nicotinic acetylcholine receptor α7 subunit, wild type (human, UniProt P36544 23-502); assay: radioligand binding; settings: one partner purified
T1 construct: also called Hα7; human α7 nAChR

“[3H]-α-bungarotoxin (from UniProt P60615 22-95) (natural protein)” gave an EC50 [1] of 0.9 nM.

B1: [3H]-α-bungarotoxin (natural protein)
chain: IVCHTTATSPISAVTCPPGENLCYRKMWCDAFCSSRGKVVELGCAATCPSKKPYEEVTCCSTDKCNPHPKQRPG
B1 gave an EC50 [2] of 20 ± 5.8 nM.
